Two molecules from article PMC7705670, “Structural and functional characterization of M. tuberculosis sedoheptulose- 7-phosphate isomerase, a critical enzyme involved in lipopolysaccharide biosynthetic pathway” (Scientific Reports, 2020) can be followed below.

The labels stand for the following.
T1: M. tuberculosis HddA enzyme (MtbHddA) (M. tuberculosis, UniProt O53637 1-386)
T1 sequence: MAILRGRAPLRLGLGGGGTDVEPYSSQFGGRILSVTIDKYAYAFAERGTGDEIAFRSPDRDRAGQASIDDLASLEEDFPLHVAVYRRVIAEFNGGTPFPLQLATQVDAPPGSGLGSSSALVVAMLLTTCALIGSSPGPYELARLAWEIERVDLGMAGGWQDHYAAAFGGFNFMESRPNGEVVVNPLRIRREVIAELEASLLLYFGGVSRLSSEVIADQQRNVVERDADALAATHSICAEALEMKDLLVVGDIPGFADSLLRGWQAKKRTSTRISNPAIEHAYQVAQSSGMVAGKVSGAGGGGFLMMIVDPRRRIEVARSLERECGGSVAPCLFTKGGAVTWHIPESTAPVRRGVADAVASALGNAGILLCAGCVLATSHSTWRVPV

B1: M. tuberculosis GmhB enzyme (MtbGmhB) (enzyme)
chain: MVAERAGHQWCLFLDRDGVINRQVVGDYVRNWRQFEWLPGAARALKKLRAWAPYIVVVTNQQGVGAGLMSAVDVMVIHRHLQMQLASDGVLIDGFQVCPHHRSQRCGCRKPRPGLVLDWLGRHPDSEPLLSIVVGDSLSDLELAHNVAAAAGACASVQIGGASSGGVADASFDSLWEFAVAVGHARGERG
B2: M. tuberculosis sedoheptulose-7-phosphate isomerase (MtbGmhA), wild type (enzyme)
chain: MCTARTAEEIFVETIAVKTRILNDRVLLEAARAIGDRLIAGYRAGARVFMCGNGGSAADAQHFAAELTGHLIFDRPPLGAEALHANSSHLTAVANDYDYDTVFARALEGSARPGDTLFAISTSGNSMSVLRAAKTARELGVTVVAMTGESGGQLAEFADFLINVPSRDTGRIQESHIVFIHAISEHVEHALFAPRQ
notes: also called Rv0113; not shown: His6, N-terminal, kept

In data set [1] the target is T1, M. tuberculosis HddA enzyme (MtbHddA). Briefly: SPR. The settings on record: both partners purified.
Data set [2] addresses B2. Nature of the data set: SPR; MtbGmhA immobilised (legend of Figure 4) on a gold surface activated by EDC-NHS; 25 °C; steady-state fit, Langmuir 1:1 model. The note with it: both partners purified. In general terms: Surface plasmon resonance follows binding to a sensor surface in real time, without labels.
The data set “SEC” concerns the molecule itself. Nature of the data set: SEC. In general terms: SEC sorts molecules by how far they enter the pores of the column.
The target in data set [3] is T1, M. tuberculosis HddA enzyme (MtbHddA). Briefly: SPR; MtbGmhA immobilised (legend of Figure 4) on a gold surface activated by EDC-NHS; 25 °C; steady-state fit, Langmuir 1:1 model. The settings on record: both partners purified.

Consider B1, for which the Kd was found to be 20 ± 0.95 µM in data set [1] and 4.9 ± 0.11 µM in data set [2].
With B2, the “stoichiometry N” value in the data set “SEC” was 4. The equilibrium dissociation constant (Kd) in data set [3] was 8.45 ± 0.45 µM.

The Kd is the free concentration of one partner at which half of the binding sites on the other are occupied at equilibrium, for simple one-to-one binding. In general, stoichiometry N refers to the number of molecules, sites or subunits per partner or assembly.
